Test results reported in patent publication US20250171549A1 (Amgen, published 2025).
Where no end group is shown, it is not given here.

B1: Antibody 2.1 IgG1 (LC: F2I_P51S_H53Q_L103V_N148K, HC: K87N_S94N_V98A)(LC: Y25A_S26A, HC: A71I_D72R) (antibody, V domains shown)
VH: QVQLVESGGGVVQPGRSLRLSCAASGFTFSNYGMHWVRQAPGKGLEWVAVISYDGSNKFYIRSVKGRFTISRDNSKNTLYLQMNSLRAEDTAVYYCARAGGIGRFDYWGQGTLVTVSS
VL: DIVMTQTPLSLSVTPGQPASISCKAAQSLLHSDGKTYLFWYLQKPGQSPQLLIYEVSNRFSGVPDRFSGSGSGTDFTLKISRVEAEDVGVYYCMQTLKLPLTFGGGTKVEIKR
B2: Antibody 3.0 IgG1 (antibody, V domains shown)
VH: EVQLVESGGGLVKPGGSLRLSCAASGFIFSNAWMSWVRQAPGKGLEWVARIKRRTDGGTTDYAAPVKDRFTISRDDSKNTLFLQMNSLKTEDTAVYYCTTVTMVRGVIADYWGQGTLVTVSS
VL: EIVLTQSPGTLSLSPGERATLSCRASQSVSSGSLAWYQQKLGQAPRLLIYGASSRATGIPDRFSGSGSGTDFTLTISSLEPEDFAVYYCQQYGSSRTFGQGTKVELKR
B3: Antibody 4.0 IgG1 (antibody, V domains shown)
VH: EVQLVESGGGLVKPGGSLRLSCAASGFIFSNAWMSWVRQAPGKGLEWVGRIKRKTDGGTTDYAAPVKGRFTISRDDSKNTLYLLMNSLKIEDTAVYYCTVVTLVRGIIFDYWGQGTLVTVSS
VL: EIVLTQSPGTLSLSPGESATLSCRVSQSVSSSQLAWYQQKPGQAPRLLIYGASSRATGIPDRFSGSGSGTDFTLTISRLEPEDFAVYYCQQYGNSRTFGQGTKVEIKR
B4: Antibody 5.0 IgG1 (antibody, V domains shown)
VH: QVQLVESGGGVVQPGRSLRLSCAASGFTFSSYGMHWVRQAPGKGLEWVAVISYDGSNKYYADSVKGRFTISRDNSKNTLYLQMNSLRAEDTAVYYCARGRYFDWFLFDYWGQGTLVTVSS
VL: DTVMTQTPLSLSVTPGQPASISCKSSQSLLHSDGKTYLFWYLQKPGQPPQLLISEVSNRFSGVPDRFSGSGSGTDFTLKISRVEAEDVGFYYCMQSLRLPLTFGGGTKVEIKR
B5: Antibody 6.0 IgG1 (antibody, V domains shown)
VH: QVQLVESGGGVVQPGRSLRLSCEASGFTFSSYVMHWVRQAPGKGLEWVSVISYDGSSQYYTDSVKGRFTISRDNSKNTLNLQMNSLRAEDTAVYYCVRGRLATAILFDYWGQGTLVTVSS
VL: DILMTQTPLSLSVTPGQPASISCKSSQSLLYSDGKTYLFWYLQRPGQPPQLLIYEVSNRFSGVPDRFSGSGSGTDFTLKISRVEAEDVGIYYCMQSIKLPLTFGGGTKVEIKR
B6: Antibody 5.1 IgG1 (VH: F134T, VL: S34R_S57Y_F103V)_huIgG1z mAb (antibody, V domains shown)
VH: QVQLVESGGGVVQPGRSLRLSCAASGFTFSSYGMHWVRQAPGKGLEWVAVISYDGSNKYYADSVKGRFTISRDNSKNTLYLQMNSLRAEDTAVYYCARGRYFDWTLFDYWGQGTLVTVSS
VL: DTVMTQTPLSLSVTPGQPASISCKSSQSLLHRDGKTYLFWYLQKPGQPPQLLIYEVSNRFSGVPDRFSGSGSGTDFTLKISRVEAEDVGVYYCMQSLRLPLTFGGGTKVEIKR
B7: Antibody 5.2 IgG1 (VH: G40P_F134T, VL: S57Y_E58L_V67R_F103V)_huIgG1z mAb (antibody, V domains shown)
VH: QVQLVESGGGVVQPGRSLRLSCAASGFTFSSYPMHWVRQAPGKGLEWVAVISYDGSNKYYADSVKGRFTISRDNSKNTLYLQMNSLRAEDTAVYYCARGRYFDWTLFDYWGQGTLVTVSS
VL: DTVMTQTPLSLSVTPGQPASISCKSSQSLLHSDGKTYLFWYLQKPGQPPQLLIYLRSNRFSGVPDRFSGSGSGTDFTLKISRVEAEDVGVYYCMQSLRLPLTFGGGTKVEIKR
B8: Antibody 5.3 IgG1 (VH: A71S_D72R, VL: S57Y_E58L_V67S_F103V)_huIgG1z mAb (antibody, V domains shown)
VH: QVQLVESGGGVVQPGRSLRLSCAASGFTFSSYGMHWVRQAPGKGLEWVAVISYDGSNKYYSRSVKGRFTISRDNSKNTLYLQMNSLRAEDTAVYYCARGRYFDWFLFDYWGQGTLVTVSS
VL: DTVMTQTPLSLSVTPGQPASISCKSSQSLLHSDGKTYLFWYLQKPGQPPQLLIYLSSNRFSGVPDRFSGSGSGTDFTLKISRVEAEDVGVYYCMQSLRLPLTFGGGTKVEIKR
B9: Antibody 5.4 IgG1 (VH: G40A, VL: S57Y_E58L_V67T_F103V)_huIgG1z mAb (antibody, V domains shown)
VH: QVQLVESGGGVVQPGRSLRLSCAASGFTFSSYAMHWVRQAPGKGLEWVAVISYDGSNKYYADSVKGRFTISRDNSKNTLYLQMNSLRAEDTAVYYCARGRYFDWFLFDYWGQGTLVTVSS
VL: DTVMTQTPLSLSVTPGQPASISCKSSQSLLHSDGKTYLFWYLQKPGQPPQLLIYLTSNRFSGVPDRFSGSGSGTDFTLKISRVEAEDVGVYYCMQSLRLPLTFGGGTKVEIKR
B10: Antibody 5.5 IgG1 (VH: G40P_M41V, VL: S57Y_E58L_V67T_F103V)_huIgG1z mAb (antibody, V domains shown)
VH: QVQLVESGGGVVQPGRSLRLSCAASGFTFSSYPVHWVRQAPGKGLEWVAVISYDGSNKYYADSVKGRFTISRDNSKNTLYLQMNSLRAEDTAVYYCARGRYFDWFLFDYWGQGTLVTVSS
VL: DTVMTQTPLSLSVTPGQPASISCKSSQSLLHSDGKTYLFWYLQKPGQPPQLLIYLTSNRFSGVPDRFSGSGSGTDFTLKISRVEAEDVGVYYCMQSLRLPLTFGGGTKVEIKR
B11: Antibody 6.1 IgG1 (VH: S67R_A114S_I134P, VL: F71L)_huIgG1z mAb (antibody, V domains shown)
VH: QVQLVESGGGVVQPGRSLRLSCEASGFTFSSYVMHWVRQAPGKGLEWVSVISYDGSRQYYTDSVKGRFTISRDNSKNTLNLQMNSLRAEDTAVYYCVRGRLATSPLFDYWGQGTLVTVSS
VL: DILMTQTPLSLSVTPGQPASISCKSSQSLLYSDGKTYLFWYLQRPGQPPQLLIYEVSNRLSGVPDRFSGSGSGTDFTLKISRVEAEDVGIYYCMQSIKLPLTFGGGTKVEIKR
B12: Antibody 6.2 IgG1 (VH: S67R_Q68A_L135K_F136L, VL: S109T_I110L)_huIgG1z mAb (antibody, V domains shown)
VH: QVQLVESGGGVVQPGRSLRLSCEASGFTFSSYVMHWVRQAPGKGLEWVSVISYDGSRAYYTDSVKGRFTISRDNSKNTLNLQMNSLRAEDTAVYYCVRGRLATAIKLDYWGQGTLVTVSS
VL: DILMTQTPLSLSVTPGQPASISCKSSQSLLYSDGKTYLFWYLQRPGQPPQLLIYEVSNRFSGVPDRFSGSGSGTDFTLKISRVEAEDVGIYYCMQTLKLPLTFGGGTKVEIKR
B13: huCCR8_44379 (VH: D61S, VL: N67Q_M99G_W109F_S111A)_huIgG1z (mAb) (antibody, V domains shown)
VH: QVQLVESGGGVVQPGRSLRLSCAASGFTFSNYGFHWVRQTPGKGLEWVAVISYSGSNRYYADSVKGRFTISRDNSKNTLYLQMNSLRGEDTALYYCARVYYGSGTYYKNRYYYGMDVWGQGTTVTVSS
VL: SYELTQPPSVSVALGQTARITCGGHNIGSKGVHWYQQKPGQAPVLVIYRQSNRPSGIPERFSGSNSGNTATLTISGTQAGDEADYYCQAFDAGTVVFGGGTQLTVLG
notes: Engineered from scFv MPK20299-A4; afucosylated IgG1, HC without C-terminal lysine
B14: huCCR8_44379 (VH: D61A_D72A, VL: N67Q_M99E_W109F_S111A)_huIgG1z (mAb) (antibody, V domains shown)
VH: QVQLVESGGGVVQPGRSLRLSCAASGFTFSNYGFHWVRQTPGKGLEWVAVISYAGSNRYYAASVKGRFTISRDNSKNTLYLQMNSLRGEDTALYYCARVYYGSGTYYKNRYYYGMDVWGQGTTVTVSS
VL: SYELTQPPSVSVALGQTARITCGGHNIGSKGVHWYQQKPGQAPVLVIYRQSNRPSGIPERFSGSNSGNTATLTISGTQAEDEADYYCQAFDAGTVVFGGGTQLTVLG
notes: as for B13

Columns and labels:
[1] = molecular target: T1, human CCR8 (human, UniProt P51685 1-355); experiment: cell-based or functional assay
T1 sequence (P51685 whole entry): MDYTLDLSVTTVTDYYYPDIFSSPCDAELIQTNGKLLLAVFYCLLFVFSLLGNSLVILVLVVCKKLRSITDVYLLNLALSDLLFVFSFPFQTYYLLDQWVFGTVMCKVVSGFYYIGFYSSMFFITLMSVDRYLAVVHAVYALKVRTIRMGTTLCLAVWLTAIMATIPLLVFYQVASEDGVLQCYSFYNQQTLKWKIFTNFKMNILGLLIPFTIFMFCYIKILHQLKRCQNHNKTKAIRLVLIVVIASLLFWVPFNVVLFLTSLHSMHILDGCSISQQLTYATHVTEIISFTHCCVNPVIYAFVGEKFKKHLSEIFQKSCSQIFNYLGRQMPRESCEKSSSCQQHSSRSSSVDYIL

[2] = molecular target: T1, human CCR8; experiment: cell-based or functional assay; remark: listed apart in the source
[3] = molecular target: T1, human CCR8; experiment: cell-based or functional assay; remark: listed apart in the source
[4] = molecular target: T2, huCCR8 (1-25)[C25S]-Nb (human, not fully specified; biotinylated for the Fab assay, non-biotinylated for the mAb assay ; biotinylated when captured on streptavidin sensors (Fab assay); non-biotinylated in the mAb assay); experiment: BLI (Octet), mAb on anti-huIgG Fc sensor, peptide-Nb in solution
T2 construct: Expressed in human cells; also called CCR8 peptide-Nb fusion; not shown: nanobody (Nb) fusion partner, any linker or tag to it, and the biotin site
T2 peptide: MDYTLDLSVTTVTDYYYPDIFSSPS

[5] = molecular target: T1, human CCR8; experiment: cell-based or functional assay; remark: listed apart in the source
[6] = molecular target: T3, huCCR8 (1-12)-Nb (human, not fully specified (C-terminus); also: fused to nanobody, biotinylated in Fab assay); experiment: BLI (Octet), mAb on anti-huIgG Fc sensor, peptide-Nb in solution
T3 construct: Expressed in human cells; also called CCR8 peptide-Nb fusion; not shown: nanobody (Nb) fusion partner, any linker or tag to it, and the biotin site
T3 peptide: MDYTLDLSVTTV
Procedure: Binding affinities (KD equilibrium dissociation constant) and rate constants (kₐ association rate constant, kd dissociation rate constant) of an Antibody 1 Fab and CCR8-binding monoclonal antibodies (mAbs) of the present invention to a CCR8 1-12 epitope (SEQ ID NO: 82)-nanobody (Nb) fusion protein were measured using an OCTET® Biolayer Interferometry system (Sartorius AG, Göttingen, Germany). The CCR8-nanobody fusion proteins were expressed in human cells. For Fab binding, biotinylated CCR8 peptide-Nb fusions were captured on streptavidin SAX biosensors to loading levels between 2 and 4 nm and then incubated with a dilution series of the soluble Fab (top 100 nM, 6-point, 1:3 serial dilution) for 300 seconds followed by 500 seconds in buffer for dissociation. For mAb binding, mAbs were captured on an anti-huIgG Fc capture biosensor to 1 to 2 nm loading level and then incubated with a dilution series of non-biotinylated CCR8 peptide-Nb fusions (top 100 nM, 6-point, 1:3 serial dilution) for 300 seconds followed by 500 seconds in buffer for dissociation.
The OCTET® system acquires data over time (seconds) using a mechanism called Biolayer Interferometry; as proteins bind to biosensor tips, a sensitive binding signal in nm is measured by the instrument. All fiber optic tips were used once and then discarded, i.e., no regeneration. OCTET® buffer baselines, dissociation steps, and protein dilutions were made with OCTET® buffer (10 mM TRIS pH 7.5, 150 mM NaCl, 1 mM CaCl₂), 0.13% (v/v) Triton X-100 and 0.10 mg/mL BSA).
Raw data was processed with GeneData Screener v18 SPR package which uses the same data processing as the OCTET® instrument Data Analysis software (subtract average of two reference wells per column; Align Y-axis to baseline; Interstep correction align to dissociation; and Savitzky-Golay filtering). Each Fab or mAb interaction was grouped into its own sensorgram and globally fit with a 1:1 binding model to determine the association rate constant (kₐ; units M⁻¹ sec⁻¹) and the dissociation rate constant (kd; units sec⁻¹).

Binder | ADCC, Percent Non-Viable cells (EC50 pM), Donor 1 [1] [pM] | ADCC, Percent Non-Viable cells (EC50 pM), Donor 2 [1] [pM] | ADCC, Percent Non-Viable cells (EC50 pM), Donor 4 [3] [pM] | ADCC, Percent Non-Viable cells (EC50 pM), Donor 5 [3] [pM] | ADCC, Percent Non-Viable cells (EC50 pM), Donor 6 [3] [pM] | also measured
B1 | < 0.256 | 13.3 |  |  |  | ADCC, Percent Non-Viable cells (EC50 pM), Donor 3 [1]: 1 pM
B2 | < 0.256 | 15.5 |  |  |  | Percent Inhibition (IC50 nM) of CCL1-dependent chemotaxis of HUT78 cells [2]: 3.7 nM
B3 | < 0.256 | 218 |  |  |  | Percent Inhibition (IC50 nM) of CCL1-dependent chemotaxis of HUT78 cells [2]: 8.4 nM
B4 | < 0.256 | 167 |  |  |  | Percent Inhibition (IC50 nM) of CCL1-dependent chemotaxis of HUT78 cells [2]: 13.6 nM
B5 | 2 | 37.4 |  |  |  | Percent Inhibition (IC50 nM) of CCL1-dependent chemotaxis of HUT78 cells [2]: 20.1 nM
B6 |  |  | 3.68 | 0.865 | 4.89 | 
B7 |  |  | 6.2 | 1.01 | 6.11 | 
B8 |  |  | 3.34 | 0.642 | 3.48 | 
B9 |  |  | 3.43 | 0.889 | 4.62 | 
B10 |  |  | 4.89 | 0.837 | 3.77 | 
B11 |  |  | 4.52 | 1.05 | 3.62 | 
B12 |  |  | 4.12 | 2.04 | 5.14 | 
B13 |  |  |  |  |  | Kd [4]: 7.2 nM; koff [4]: 0.000798 s⁻¹; kon [4]: 110000 M⁻¹ s⁻¹; ADCC, Percent Non-Viable cells (EC50 pM), Donor 7 [5]: 0.28 pM; Kd [6]: 8.1 nM; koff [6]: 0.00107 s⁻¹; kon [6]: 132000 M⁻¹ s⁻¹
B14 |  |  |  |  |  | Kd [4]: 7.8 nM; koff [4]: 0.00114 s⁻¹; kon [4]: 146000 M⁻¹ s⁻¹; ADCC, Percent Non-Viable cells (EC50 pM), Donor 7 [5]: 0.52 pM; Kd [6]: 9.5 nM; koff [6]: 0.00134 s⁻¹; kon [6]: 142000 M⁻¹ s⁻¹
